Literature values in patent US7708978B2, “Targeted hydrophilic polymer, binders with interferon and medical composite comprising above binders” (Beijing Jiankai Technology Co., Ltd., priority 2002, dated 2010).

Conditions: in vivo

In the case of interferon α, the circulation half-life is given as 4 to 8 h.
